Consider three substances from article PMC9118924.

The experiment addresses arrestin-3 fused to nanoluciferase (UniProt P32121). In words: arrestin-3 interaction assay (hGPR84-eYFP with arrestin-3-nanoluciferase), 2-HTP concentration-response. To be noted: value read at the highest 2-HTP concentration, Log [2-HTP] M = -4; parent: est. 100; read off a plot.

“FLAG-human GPR84-eYFP (from UniProt Q9NQS5) pmIL3-Ct (all 21 serines/threonines of the third intracellular loop and the two serines of the C-terminal tail converted to alanine; positions not printed legibly)”: the percent of parent is 28 % of WT.
With “FLAG-human GPR84-eYFP (from UniProt Q9NQS5) pmIL3 (all 21 serine and threonine residues of the third intracellular loop converted to alanine; positions not printed legibly)”, the percent of parent was 28 % of WT.
The same measure for “FLAG-human GPR84-eYFP (from UniProt Q9NQS5) pmCt (the two serine residues of the C-terminal tail converted to alanine; positions not printed legibly)”: 75 % of WT.
